Assay results as given in patent US12674174B2, “Protoporphyrinogen oxidase (PPO) resistance plant” (PLANTARC BIO LTD., priority 2022, dated 2026).
“Also recorded” adds a separate entry of the source.

System: Arabidopsis plants
Conditions: for High concentration herbicide tolerance: Table 1; for High concentration herbicide tolerance / Herbicide tolerance: yes/no; for rank among fungal isolated-PPO genes for growth in the presence of Strike, Star, Goal and Aurora: Strike 2.5, Star 1.25, Goal 1.15, Aurora 1.0 kg/hectare; for herbicides against which tolerance was shown: FIG. 3C, Strike, Star, Goal, Aurora tested; for Herbicide tolerance: Table 2, FIG. 6C legend: Star 1.25 kg/hectare

Molecule	High concentration herbicide tolerance	Herbicide tolerance	also measured
SEQ ID NO: 103: Nicotiana tabacum protoporphyrinogen oxidase, mitochondrial, NP_001312887.1 (protein, listed as Nicotiana tabacum) MAPSAGEDKHSSAKRVAVIGAGVSGLAAAYKLKIHGLNVTVFEAEGKAGGKLRSVSQDGLIWDEGANTMTESEGDVTFLIDSLGLREKQQFPLSQNKRYIARNGTPVLLPSNPIDLIKSNFLSTGSKLQMLLEPILWKNKKLSQVSDSHESVSGFFQRHFGKEVVDYLIDPFVAGTCGGDPDSLSMHHSFPELWNLEKRFGSVILGAIRSKLSPKNEKKQGPPKTSANKKRQRGSFSFLGGMQTLTDAICKDLREDELRLNSRVLELSCSCTEDSAIDSWSIISASPHKRQSEEESFDAVIMTAPLCDVKSMKIAKRGNPFLLNFIPEVDYVPLSVVITTFKRENVKYPLEGFGVLVPSKEQQHGLKTLGTLFSSMMFPDRAPNNVYLYTTFVGGSRNRELAKASRTELKEIVTSDLKQLLGAEGEPTYVNHLYWSKAFPLYGHNYDSVLDAIDKMEKNLPGLFYAGNHRGGLSVGKALSSGCNAADLVISYLESVSTDSKRHC	no	–	–
SEQ ID NO: 114: PPO from Trichoderma sp. fused to cTP. Chimeric Protein; cloned from SEQ ID NO: 96 (protein, listed as Trichoderma sp.) MELSLLRPTTQSLLPSFSKPNLRLNVYKPLRLRCSVAGGMSLKRADGAAMAFLRLSSAVCGRRRIPAGGLPADANVAVLGGGLTGLTTAYYLAKWLPPTAKITLLEASDRLGGWIKTDRVPVKVGGVEGVVSFERGPRSLSSLNKSTWRFDDLVLWDLALDLGLRVVSPPDKPRYIYYPDHLVPLPPHTSLAAFASEPLVLESLWAGFGYVLRRLFSRKAGVPVQDLSIADWIQHITGSRAVAENLASAMVHGIYGGDIYTLSARSVLDRFYWVHYLPALGPDVRHMALSEQVFMEAMGQDPLIRKLAQQPRGALLNFGEAGMETLPIALADALNGQANVEVKLGAKVTGLEYESETEMMKITTTGQDDSPAEKYHKVISTLPSQHLARITDTLPSLASSHAVSIMTVNIWYPQTNLKPPGFGYLIPLSVPAEQNPERALGVFFDSDVGVRGPDEPAGTKLFVLMGGHYYDKKQPGASVRVPSEEEAIEQAKRVLERHLGIPQSTPCFAMARLASECIPQYVCGHQDTMAAADEDLRDSFDGRLAVAGGSYTKIGAMGALRNGYDIANTVVREDWLTTGLEQLEFPTQFCGVPTERIPVRRFSRR	–	–	rank among fungal isolated-PPO genes for growth in the presence of Strike, Star, Goal and Aurora: top 3
SEQ ID NO: 112: PPO from Penicillium sp. fused to cTP. Chimeric Protein; cloned from SEQ ID NO: 94 (protein, listed as Penicillium sp.) MELSLLRPTTQSLLPSFSKPNLRLNVYKPLRLRCSVAGGMRLLTASKGLRSPQKPLISAIRCQHRSYNAAVIGGGITGLTAAWQLIQDRECSSVTIYEKSRRLGGWLQSETIPVEGGEVVFEYGPRTLRSAMPASLPLLYLVSNLGLFDELITTSKRSPAALNRYIYYPDHLVRLPTPDPDLSLMENARNIFRTITTEPLFEGFITGLLSEPNKPARPQEEWAIDESLAEFITRRFNRKIADNLVSAVMHGIYADNIDEMSAQAIMGPLRNLEDGGILFGLLIKSIMGKKTRSMDDFLAVDAVYKTPETMQRLDEINRVVKTASTFTFKRGTQQLVEGLTRALRASEKVRLVMDADILALDPPANRGHKLKIYTGIRGEESFDHVISAISAPAMARILDPQGQVKIDCDPEDEYRALWNSKKARHPKPNIGTVSGLHFFRHATTVMVVNLYYKTPNLLPVDGFGYLIPRSIPYEQNPECGLGVIFASASSSGESPVAPYPKVSQDSAPGTKITIMFGGHYWDGWKKQDYPDHKTAVRMAKDMLERHLGITEPPALVRTRLQENAIPKYKPPHIHQIYALSRWAKEEYHNRLVLVGNSFSGVGVGDCVRQGIMAATHGVGRHKLTATPRLESKDWCPWKEYNYQHWDLKGGVPTAPVRLFESDI	–	–	herbicides against which tolerance was shown: tolerances against Goal and Star herbicides only
SEQ ID NO: 116: PPO from Hesseltinella sp. fused to cTP. Chimeric Protein; cloned from SEQ ID NO: 98 (protein, listed as Hesseltinella sp.) MELSLLRPTTQSLLPSFSKPNLRLNVYKPLRLRCSVAGGMPRSIVVLGGGISGLSAAYYLSRLVPQAHIRLIESNKRAGGFIKTQQVNDHLIFEAGPRTLRPHGTSGTVLLDMIKDLDLSPLLVNIPKSHPSAQHRYIEYHGQINQLPSGLADMLLHSPPIMDSVITAGMREPFLARASTTKDESLYNFMERRFNEHTALNLMGAMAHGIYAGDAKQLSVHSTFPILAACEQEYGSVVLGMLSGKLSVESPRERQLADACRAKDPEWFKQMQQSSVLGFLPGLGALPSRLTQFLSSQPNVSMQLGETVSRLDGQSSHQIEITTSQGQIYHADHIVSTLPSHALARISMPTTTSLPHLTHNPSADVALVNLAYEKCKVKPGLDGFGFLTPHADTMPPSQFPGLLGMIFDSNSLGVQDQDSNMVRFTAMIGGADWNLAFGSLHDNDAISSKALTMATAALSKYLEIHESPAHYHCRILRQCIPQYLVGHRQRMNELHAALQHSFGHTMSVTGASYLGVSVPDCIKHSRMLIEDLVDTGALGSKQAVITGLEKVTLPMYYKL	–	–	herbicides against which tolerance was shown: tolerances against Goal and Star herbicides only
SEQ ID NO: 94: PPO from Penicillium sp. Protein. (protein, listed as Penicillium sp.) MRLLTASKGLRSPQKPLISAIRCQHRSYNAAVIGGGITGLTAAWQLIQDRECSSVTIYEKSRRLGGWLQSETIPVEGGEVVFEYGPRTLRSAMPASLPLLYLVSNLGLFDELITTSKRSPAALNRYIYYPDHLVRLPTPDPDLSLMENARNIFRTITTEPLFEGFITGLLSEPNKPARPQEEWAIDESLAEFITRRFNRKIADNLVSAVMHGIYADNIDEMSAQAIMGPLRNLEDGGILFGLLIKSIMGKKTRSMDDFLAVDAVYKTPETMQRLDEINRVVKTASTFTFKRGTQQLVEGLTRALRASEKVRLVMDADILALDPPANRGHKLKIYTGIRGEESFDHVISAISAPAMARILDPQGQVKIDCDPEDEYRALWNSKKARHPKPNIGTVSGLHFFRHATTVMVVNLYYKTPNLLPVDGFGYLIPRSIPYEQNPECGLGVIFASASSSGESPVAPYPKVSQDSAPGTKITIMFGGHYWDGWKKQDYPDHKTAVRMAKDMLERHLGITEPPALVRTRLQENAIPKYKPPHIHQIYALSRWAKEEYHNRLVLVGNSFSGVGVGDCVRQGIMAATHGVGRHKLTATPRLESKDWCPWKEYNYQHWDLKGGVPTAPVRLFESDI	yes	yes	–
SEQ ID NO: 115: PPO from Rhodotorula sp. fused to cTP. Chimeric Protein; cloned from SEQ ID NO: 97 (protein, listed as Rhodotorula sp.) MELSLLRPTTQSLLPSFSKPNLRLNVYKPLRLRCSVAGGMQSYSGNALARQSVPIKPIRRRTPRLNLIRSLPSPRFFVTSPSSSQRHDHPYHTLAILGGGLSGLSTAHYFLRTLSPSLRDQTRIVVLEKEERVGGWCRAVRIQNGRRLGENEKPEGTEDLLVFETGPRSVRPVGLLGWLTIEMAHELGLTPSIVTVPKSAPSARNRFIYTGHRSSTSISPILKAALPTIPSALLEPFRPRSPLHDDPSGLADESVDSFIARRFGRRLADELASAGIHGIYAGDTRRLSVRAVLPALWELEKEWGSVVIGALFGSFARRRGWKKNSPWRMRQQAETEEMERVKERIRAKGGEALVEDMEKASVWGVKGGLQVVTETLREKLEAEGVEFWMGEKGKVEHVEKVDGGWQIRTSSGALDASQLVTTIPQLLPSSLAPPALPATTVSVVNLAFEKPAPGSPPLHPAGFGYLIPRTVPSSLNPHRALGVIFDSDVMPDVDSSSSLGLTKLSLLLGGSYWLDRHPPPQPSHDDLVNAALETLRLHFPDRPIPKPVHAFTHTHVNCIPQVPPGFMPSFRAFGDRLREAGNVAVVGGGFAAVGVNGCVKAAWEVGSAMAQAVNAQAGGKEGEGEEKVREAVARTVKTGTEMWEL	–	–	rank among fungal isolated-PPO genes for growth in the presence of Strike, Star, Goal and Aurora: top 3; also recorded: top 2
SEQ ID NO: 96: PPO from Trichoderma sp. Protein. (protein, listed as Trichoderma sp.) MSLKRADGAAMAFLRLSSAVCGRRRIPAGGLPADANVAVLGGGLTGLTTAYYLAKWLPPTAKITLLEASDRLGGWIKTDRVPVKVGGVEGVVSFERGPRSLSSLNKSTWRFDDLVLWDLALDLGLRVVSPPDKPRYIYYPDHLVPLPPHTSLAAFASEPLVLESLWAGFGYVLRRLFSRKAGVPVQDLSIADWIQHITGSRAVAENLASAMVHGIYGGDIYTLSARSVLDRFYWVHYLPALGPDVRHMALSEQVFMEAMGQDPLIRKLAQQPRGALLNFGEAGMETLPIALADALNGQANVEVKLGAKVTGLEYESETEMMKITTTGQDDSPAEKYHKVISTLPSQHLARITDTLPSLASSHAVSIMTVNIWYPQTNLKPPGFGYLIPLSVPAEQNPERALGVFFDSDVGVRGPDEPAGTKLFVLMGGHYYDKKQPGASVRVPSEEEAIEQAKRVLERHLGIPQSTPCFAMARLASECIPQYVCGHQDTMAAADEDLRDSFDGRLAVAGGSYTKIGAMGALRNGYDIANTVVREDWLTTGLEQLEFPTQFCGVPTERIPVRRFSRR	yes	yes	–
SEQ ID NO: 97: PPO from Rhodotorula sp. Protein. (protein, listed as Rhodotorula sp.) MQSYSGNALARQSVPIKPIRRRTPRLNLIRSLPSPRFFVTSPSSSQRHDHPYHTLAILGGGLSGLSTAHYFLRTLSPSLRDQTRIVVLEKEERVGGWCRAVRIQNGRRLGENEKPEGTEDLLVFETGPRSVRPVGLLGWLTIEMAHELGLTPSIVTVPKSAPSARNRFIYTGHRSSTSISPILKAALPTIPSALLEPFRPRSPLHDDPSGLADESVDSFIARRFGRRLADELASAGIHGIYAGDTRRLSVRAVLPALWELEKEWGSVVIGALFGSFARRRGWKKNSPWRMRQQAETEEMERVKERIRAKGGEALVEDMEKASVWGVKGGLQVVTETLREKLEAEGVEFWMGEKGKVEHVEKVDGGWQIRTSSGALDASQLVTTIPQLLPSSLAPPALPATTVSVVNLAFEKPAPGSPPLHPAGFGYLIPRTVPSSLNPHRALGVIFDSDVMPDVDSSSSLGLTKLSLLLGGSYWLDRHPPPQPSHDDLVNAALETLRLHFPDRPIPKPVHAFTHTHVNCIPQVPPGFMPSFRAFGDRLREAGNVAVVGGGFAAVGVNGCVKAAWEVGSAMAQAVNAQAGGKEGEGEEKVREAVARTVKTGTEMWEL	yes	yes	–
